This is an account of results in US20230070339A1 (UNIVERSITY OF SOUTHAMPTON, published 2023).

This assay addresses T1, LILRB3-hFc recombinant protein (human, UniProt O75022 24-443).
T1 construct: extracellular domain; also called LILRB-Fc; the extracellular LILRB3 domain with a human Fc tag; not shown: human Fc tag
In words: SPR (Biacore T100), LILRB3-hFc amine-coupled on CM5 chip, mAb as analyte, 1:1 model. Here is the method: SPR was performed with the Biacore T100 (GE Healthcare, UK) as per the manufacturer's instructions. LILRB3-hFc recombinant protein (the extracellular LILRB3 domain with a human Fc tag) was used as the ligand and immobilized by amine coupling onto a series S sensor chip (CM5). Various LILRB3 mAb were used as “analytes” and flowed across the chip, and SPR measured.
(Surface plasmon resonance follows binding to a sensor surface in real time, without labels.)

T1 sequence (O75022 24-443): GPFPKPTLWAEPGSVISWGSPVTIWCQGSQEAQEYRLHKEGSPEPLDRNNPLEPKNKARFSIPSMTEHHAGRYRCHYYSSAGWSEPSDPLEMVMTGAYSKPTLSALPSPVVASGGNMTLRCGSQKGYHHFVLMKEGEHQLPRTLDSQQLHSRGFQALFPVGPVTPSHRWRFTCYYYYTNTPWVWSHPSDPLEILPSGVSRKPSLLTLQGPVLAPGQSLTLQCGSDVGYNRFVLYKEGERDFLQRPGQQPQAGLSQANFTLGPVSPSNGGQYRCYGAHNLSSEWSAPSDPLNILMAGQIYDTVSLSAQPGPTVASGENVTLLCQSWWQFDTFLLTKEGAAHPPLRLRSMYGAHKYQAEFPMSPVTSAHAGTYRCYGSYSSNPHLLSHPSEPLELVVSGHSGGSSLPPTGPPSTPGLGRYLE

B1: LILRB3 mAb clone A16 (antibody, human IgG1, V domains shown)
VH: EVQLLESGGGLVQPGGSLRLSCAASGFTFSSYWMSWVRQAPGKGLEWVSRINTHGTNIDYADSVKGRFTISRDNSKNTLYLQMNSLRAEDTAVYYCVGVAGTGWFDPWGQGTLVTVSS
VL: QSVLTQPPSASGTPGQRVTISCTGSSSNIGAGYDVHWYQQLPGTAPKLLIYGNNNRPSGVPDRFSGSKSGTSASLAISGLRSEDEADYYCQSYDTSLSGSVFGGGTKLTVLG
notes: Fully human IgG1, full-length IgG; only variable domains tied to the clone; APC-labelled for staining of primary cells; deglycosylated in the T cell assay
The term Kd denotes the free concentration of one partner at which half of the binding sites on the other are occupied at equilibrium, for simple one-to-one binding. As to B1, the Kd is 816 pM.
